Results as given in patent US20220047712A1 (FORTIS THERAPEUTICS, published 2022).

Molecular target: T1, CD46 (human, UniProt P15529 35-392)
T1 construct: whole, on cells; also called CD46 complement regulatory protein; cluster of differentiation 46
T1 sequence (looked up): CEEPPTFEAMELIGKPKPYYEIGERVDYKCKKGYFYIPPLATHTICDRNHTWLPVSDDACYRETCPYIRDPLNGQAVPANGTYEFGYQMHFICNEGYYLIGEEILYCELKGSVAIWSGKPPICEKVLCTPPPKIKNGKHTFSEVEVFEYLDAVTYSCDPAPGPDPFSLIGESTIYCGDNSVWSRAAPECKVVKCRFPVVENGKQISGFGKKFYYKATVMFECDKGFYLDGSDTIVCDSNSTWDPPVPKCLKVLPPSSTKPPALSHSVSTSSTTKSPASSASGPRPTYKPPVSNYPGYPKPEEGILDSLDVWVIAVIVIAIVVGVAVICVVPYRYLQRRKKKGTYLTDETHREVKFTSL
Assay: flow cytometry on cells, YS5FL at 10 µg/mL, AlexaFluor-488 anti-human IgG1 Fc secondary
Procedure: Cell surface CD46 was detected by flow cytometry. Cells were harvested, centrifuged and resuspended in FACS buffer (PBS+2% FBS) at a concentration of 1×10⁶ cells/mL. 100 μL of cell suspension was dispensed into each well of a 96-well plate, 100 μL of YS5FL at 10 μg/mL was added to the wells and incubated for 1 hour at 4° C. The cells were washed three times with FACS buffer. After the third wash, the cells were resuspended in 100 μL 1:500 diluted AlexaFluor-488 mouse anti-Human IgG1 Fc secondary antibody and incubated for 1 hour at 4° C. in the dark. The cells were washed three times with 200 μL PBS by centrifuging at 2000 RPM for 5 minutes. After the last wash, the cells were resuspended in 300 μL cold PBS and analyzed on a FACSVerse™ (BD Biosciences) flow cytometer. YS5FL bound specifically to the surface of LnCap-C4-2B, LnCap-C4, DU145, PC3-luc, and Hs27 prostate cancer cells, but not to non-tumor BPH1 cells. FIG. 1. Likewise, YS5FL bound specifically to the surface of RPMI8226, MM.1S, MM.1R, and INA6 multiple myeloma cells. FIG. 2.

binding result: binds
B1: YS5FL (antibody, human IgG1, lambda, V domains shown)
VH: QVQLVQSGGGVVQPGRSLRLACAASGLTVNNYAMHWVRQAPGKGLEWVAVISYDGNNKYYADSVKGRFTISRDNSKNTLYLQMNSLRAEDTAVYYCAKGGGYFDLWGRGTLVTVSS
VL: QSVLTQPPSVSGAPGQRVTISCTGSSSNIGAGYDVHWYQQLPGTAPKLLIYGNNNRPSGVPDRFSGSKSGTSASLAITGLQAEDEADYYCSSYTSGTWLFGGGTKLTVLG
notes: FOR46 is this antibody conjugated to MMAE via mc-vc-PAB; also called anti-CD46 YS5FL antibody; YS5FL mAb
